Data published in US20140112930A1 (published 2014).

Tests used:
[1] = target: T1, hAng-1-WT (human, UniProt Q15389 20-498, limits assumed); assay: SPR, 1 uM blocker premixed with 10 nM hAng-1-WT, over hTie-2-mFc surface
T1 construct: a tag is not mentioned there; also called full-length wild-type human Ang-1
T1 sequence (looked up): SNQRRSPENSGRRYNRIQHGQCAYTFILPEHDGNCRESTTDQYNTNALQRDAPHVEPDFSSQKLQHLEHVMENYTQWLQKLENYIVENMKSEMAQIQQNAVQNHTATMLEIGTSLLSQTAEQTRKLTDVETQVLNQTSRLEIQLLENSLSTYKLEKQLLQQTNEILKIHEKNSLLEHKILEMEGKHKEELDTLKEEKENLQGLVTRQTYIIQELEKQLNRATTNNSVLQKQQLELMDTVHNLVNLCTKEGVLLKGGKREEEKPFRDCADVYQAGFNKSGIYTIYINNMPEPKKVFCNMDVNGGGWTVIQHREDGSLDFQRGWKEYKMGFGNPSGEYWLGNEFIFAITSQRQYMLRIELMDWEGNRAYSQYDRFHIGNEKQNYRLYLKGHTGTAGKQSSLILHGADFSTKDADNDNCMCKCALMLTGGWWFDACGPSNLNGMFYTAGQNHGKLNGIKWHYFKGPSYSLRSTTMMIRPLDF
Experimental: (§1) In this experiment, a human Tie-2 full-length extracellular domain construct (hTie-2-mFc-ecto) was amine-coupled on a BIACORE™ chip to create a receptor coated surface. […] The equilibrated solutions were injected over the receptor surfaces at 5 μL/min for 5 minutes at 25° C.

[2] = target: T2, Biotin-hBA2 (human, biotinylated (sites not given)); assay: blocking ELISA, biotin-hBA2 to hTie-2
T2 construct: hBA2 consists of two dimers; also called biotinylated hBA2; human bow-Ang2
T2 sequence (chain, as listed by the source limits assumed): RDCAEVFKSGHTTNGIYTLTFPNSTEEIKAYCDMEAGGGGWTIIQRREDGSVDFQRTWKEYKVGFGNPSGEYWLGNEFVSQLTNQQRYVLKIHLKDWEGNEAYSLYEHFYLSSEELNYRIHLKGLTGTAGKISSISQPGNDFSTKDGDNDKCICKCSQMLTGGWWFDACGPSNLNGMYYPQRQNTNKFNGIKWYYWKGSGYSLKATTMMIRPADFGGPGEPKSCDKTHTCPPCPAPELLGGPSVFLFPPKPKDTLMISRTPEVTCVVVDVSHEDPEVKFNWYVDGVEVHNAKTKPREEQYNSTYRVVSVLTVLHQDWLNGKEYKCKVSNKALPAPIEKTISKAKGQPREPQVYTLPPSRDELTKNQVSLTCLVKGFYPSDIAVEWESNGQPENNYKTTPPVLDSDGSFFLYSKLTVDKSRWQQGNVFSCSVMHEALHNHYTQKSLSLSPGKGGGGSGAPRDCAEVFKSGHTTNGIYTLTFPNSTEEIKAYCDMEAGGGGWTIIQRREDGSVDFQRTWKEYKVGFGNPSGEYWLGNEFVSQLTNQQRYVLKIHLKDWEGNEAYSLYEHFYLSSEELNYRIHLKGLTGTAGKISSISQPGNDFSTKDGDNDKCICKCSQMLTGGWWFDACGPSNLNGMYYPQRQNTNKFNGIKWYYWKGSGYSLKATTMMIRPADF

[3] = target: T1, hAng-1-WT; assay: SPR, 1 uM blocker premixed with 10 nM hAng-1-WT, over hTie-2-mFc surface; RU of hAng-1 bound
Experimental: as §1

[4] = target: T3, Mouse Ang-2FD-hFc (mouse (Mus musculus)); assay: blocking ELISA, 16.67 nM antibody, Ang-2FD-hFc to coated hTie-2-mFc
T3 construct: also called dimeric mouse Ang-2FD
T3 sequence (chain, as listed by the source limits assumed): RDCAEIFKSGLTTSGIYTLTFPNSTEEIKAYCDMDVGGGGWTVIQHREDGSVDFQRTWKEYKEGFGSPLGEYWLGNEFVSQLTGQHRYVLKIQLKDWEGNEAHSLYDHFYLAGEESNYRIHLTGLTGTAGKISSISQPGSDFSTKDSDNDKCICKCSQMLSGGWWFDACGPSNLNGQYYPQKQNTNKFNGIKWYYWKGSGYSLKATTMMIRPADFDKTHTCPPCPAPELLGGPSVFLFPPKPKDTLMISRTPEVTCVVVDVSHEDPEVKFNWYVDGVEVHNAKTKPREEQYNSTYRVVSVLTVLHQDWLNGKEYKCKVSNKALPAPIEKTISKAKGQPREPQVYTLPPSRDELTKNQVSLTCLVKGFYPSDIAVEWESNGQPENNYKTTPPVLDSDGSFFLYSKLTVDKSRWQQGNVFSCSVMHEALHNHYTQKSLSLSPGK

[5] = target: T4, Human Ang-2FD-hFc (human); assay: as above
T4 construct: also called dimeric human Ang-2FD; human Ang-2FD protein conjugated to human IgG
T4 sequence (chain, as listed by the source limits assumed): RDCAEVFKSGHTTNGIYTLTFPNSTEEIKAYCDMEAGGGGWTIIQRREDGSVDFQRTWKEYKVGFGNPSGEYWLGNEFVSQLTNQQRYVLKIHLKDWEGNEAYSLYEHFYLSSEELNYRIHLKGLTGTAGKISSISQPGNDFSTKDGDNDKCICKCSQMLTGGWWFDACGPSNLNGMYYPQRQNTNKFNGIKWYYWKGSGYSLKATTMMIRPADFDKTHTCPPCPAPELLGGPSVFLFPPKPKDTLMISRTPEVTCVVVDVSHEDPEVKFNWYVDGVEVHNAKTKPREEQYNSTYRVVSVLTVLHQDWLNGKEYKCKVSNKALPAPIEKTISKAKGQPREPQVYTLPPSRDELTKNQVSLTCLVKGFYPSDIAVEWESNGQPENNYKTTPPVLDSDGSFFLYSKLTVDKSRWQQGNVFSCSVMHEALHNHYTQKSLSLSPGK

[6] = target: T5, Monkey Ang-2FD-hFc (monkey (Macca fascicularis)); assay: as above
T5 construct: also called dimeric monkey Ang-2FD
T5 sequence (chain, as listed by the source limits assumed): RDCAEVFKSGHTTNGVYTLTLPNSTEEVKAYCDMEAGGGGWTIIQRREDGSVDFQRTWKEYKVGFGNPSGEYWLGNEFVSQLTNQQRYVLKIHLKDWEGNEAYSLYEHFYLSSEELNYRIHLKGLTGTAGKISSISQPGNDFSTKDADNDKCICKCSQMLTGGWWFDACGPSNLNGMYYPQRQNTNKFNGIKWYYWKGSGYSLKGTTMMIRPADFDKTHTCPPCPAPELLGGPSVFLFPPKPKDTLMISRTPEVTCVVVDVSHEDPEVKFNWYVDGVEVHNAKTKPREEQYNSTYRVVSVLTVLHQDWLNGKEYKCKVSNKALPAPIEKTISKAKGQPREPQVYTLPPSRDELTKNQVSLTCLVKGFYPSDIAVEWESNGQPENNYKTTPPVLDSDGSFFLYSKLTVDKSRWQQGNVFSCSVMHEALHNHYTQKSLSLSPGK

B1: H1H724N (antibody, V domains shown)
VH: QVQLVESGGGVVQPGRSLRLSCAASGFTLSNYGMHWVRQAPGKGLEWVAVIWHDGSNTYYADSVKGRFTISRDNSKNTLYLQMNSLRAEDTAVYYCTREGLDFWSGYYPNWFDPWGQGTLVTVSS
VL: DIQMTQSPSSLSASVGDRVTITCRASQGIRNDLGWYQQKPGKAPKRLIYAASNLQGGVPSRFSGSGSGTEFTLTISSLQPEDFAAYYCLQHNIYPLTFGGGTKVEIK
Percent of Negative Control Binding [1]: 34%
IC50 [2]: 4 pM
RU (average) [3]: 57 RU
Percent Blocking of Ang-2FD Binding to Tie-2 [4]: 97.1%
Percent Blocking of Ang-2FD Binding to Tie-2 [5]: 96.6%
Percent Blocking of Ang-2FD Binding to Tie-2 [6]: 96.6%

B2: hTie-2-mFc (Fc fusion)
chain: AMDLILINSLPLVSDAETSLTCIASGWRPHEPITIGRDFEALMNQHQDPLEVTQDVTREWAKKVVWKREKASKINGAYFCEGRVRGEAIRIRTMKMRQQASFLPATLTMTVDKGDNVNISFKKVLIKEEDAVIYKNGSFIHSVPRHEVPDILEVHLPHAQPQDAGVYSARYIGGNLFTSAFTRLIVRRCEAQKWGPECNHLCTACMNNGVCHEDTGECICPPGFMGRTCEKACELHTFGRTCKERCSGQEGCKSYVFCLPDPYGCSCATGWKGLQCNEACHPGFYGPDCKLRCSCNNGEMCDRFQGCLCSPGWQGLQCEREGIPRMTPKIVDLPDHIEVNSGKFNPICKASGWPLPTNEEMTLVKPDGTVLHPKDFNHTDHFSVAIFTIHRILPPDSGVWVCSVNTVAGMVEKPFNISVKVLPKPLNAPNVIDTGHNFAVINISSEPYFGDGPIKSKKLLYKPVNHYEAWQHIQVTNEIVTLNYLEPRTEYELCVQLVRRGEGGEGHPGPVRRFTTASIGLPPPRGLNLLPKSQTTLNLTWQPIFPSSEDDFYVEVERRSVQKSDQQNIKVPGNLTSVLLNNLHPREQYVVRARVNTKAQGEWSEDLTAWTLSDILPPQPENIKISNITHSSAVISWTILDGYSISSITIRYKVQGKNEDQHVDVKIKNATIIQYQLKGLEPETAYQVDIFAENNIGSSNPAFSHELVTLPESQAPADLGGGKGPGEPRGPTIKPCPPCKCPAPNLLGGPSVFIFPPKIKDVLMISLSPIVTCVVVDVSEDDPDVQISWFVNNVEVHTAQTQTHREDYNSTLRVVSALPIQHQDWMSGKEFKCKVNNKDLPAPIERTISKPKGSVRAPQVYVLPPPEEEMTKKQVTLTCMVTDFMPEDIYVEWTNNGKTELNYKNTEPVLDSDGSYFMYSKLRVEKKNWVERNSYSCSVVHEGLHNHHTTKSFSRTPGK
notes: also called hTie-2-mFc-ecto; human Tie-2 conjugated to mouse IgG
Percent of Negative Control Binding [1]: 42%
RU (average) [3]: 71 RU
